Reference: paper PMC5218534, “Structural and biochemical analyses of the DEAD-box ATPase Sub2 in association with THO or Yra1” (eLife, 2017)

Key:
Sub2 (full-length) = target: T1, Sub2 (full-length) (Saccharomyces cerevisiae, UniProt Q07478); assay: NADH enzyme-coupled ATPase assay; format: biochemical; details: 1 mM ATP; 10 µM poly(U) 20-mer RNA; 2 mM MgCl2, pH 7.0, 37 °C; no THO or Yra1
T1 construct: full-length, expressed in E. coli BL21-CodonPlus(DE3)-RIL with N-terminal GST tag removed by TEV
T1 sequence (Q07478 1-446): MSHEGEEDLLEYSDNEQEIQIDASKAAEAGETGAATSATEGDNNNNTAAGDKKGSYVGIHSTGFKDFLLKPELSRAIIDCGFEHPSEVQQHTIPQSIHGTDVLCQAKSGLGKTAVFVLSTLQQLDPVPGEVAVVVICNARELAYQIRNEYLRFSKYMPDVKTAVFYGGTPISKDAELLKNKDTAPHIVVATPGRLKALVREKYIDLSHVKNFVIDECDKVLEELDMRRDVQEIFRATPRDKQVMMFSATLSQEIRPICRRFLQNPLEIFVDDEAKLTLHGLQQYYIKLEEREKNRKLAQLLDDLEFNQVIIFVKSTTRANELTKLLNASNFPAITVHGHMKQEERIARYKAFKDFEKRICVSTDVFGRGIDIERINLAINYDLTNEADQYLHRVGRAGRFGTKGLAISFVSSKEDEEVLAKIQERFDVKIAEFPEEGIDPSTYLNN

Sub2 (a.a. 62-446) = target: T2, Sub2 (a.a. 62-446) (S. cerevisiae, UniProt Q07478 62-446); assay: crystal structure; Sub2 (62-446), Yra1-C* and poly(U) 15-mer RNA mixed 1:1.2:1.2 with 2 mM MgCl2 and ADP•BeF3; sitting drop, 4 °C, 100 mM Bis-Tris pH 5.5, 20% PEG3350, 0.2 M ammonium acetate; 2.6 Å; details: both partners purified
T2 construct: source: E. coli BL21-CodonPlus(DE3)-RIL, purified (glutathione sepharose, TEV, mono Q, Superdex 200); not shown: GST, N-terminal, cleaved
T2 sequence (looked up): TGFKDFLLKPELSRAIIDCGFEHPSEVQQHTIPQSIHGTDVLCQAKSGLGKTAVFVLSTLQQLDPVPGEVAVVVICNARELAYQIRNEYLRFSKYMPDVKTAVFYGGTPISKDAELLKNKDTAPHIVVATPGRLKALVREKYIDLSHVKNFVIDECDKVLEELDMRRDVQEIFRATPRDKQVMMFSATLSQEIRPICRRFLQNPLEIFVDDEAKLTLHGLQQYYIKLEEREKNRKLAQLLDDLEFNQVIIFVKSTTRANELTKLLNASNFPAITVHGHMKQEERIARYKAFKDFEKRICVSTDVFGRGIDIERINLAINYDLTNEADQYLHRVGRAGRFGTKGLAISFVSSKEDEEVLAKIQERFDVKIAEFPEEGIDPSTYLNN

[1] = target: THO core complex (THO*) (S. cerevisiae | S. bayanus) (UniProt P53552)
[2] = target: T3, DEAD-box ATPase Sub2, full length (S. cerevisiae, UniProt Q07478 1-446); assay: cell-based or functional assay
T3 sequence (looked up): T1 sequence (Q07478 1-446)

Yra1 C-box = target: T4, Yra1 C-box (UniProt Q12159 208-226); assay: EMSA; C-box without Sub2; EMSA: 20 nM RNA, 20 mM HEPES pH 7.0, 100 mM NaCl, 1 mM TCEP, 2 mM MgCl2, 5% glycerol, 0.5 U/ul SUPERase-In, 1 mM nucleotide as indicated; room temperature, 10 min; 5% native PAGE, 45 mM Tris-borate; details: label: 5' Alexa488; single strand
T4 chain: AKKSLEDLDKEMADYFEKK

Yra1-C = target: T5, Yra1-C (UniProt Q12159 185-226); assay: EMSA; Yra1-C without Sub2; EMSA: 20 nM RNA, 20 mM HEPES pH 7.0, 100 mM NaCl, 1 mM TCEP, 2 mM MgCl2, 5% glycerol, 0.5 U/ul SUPERase-In, 1 mM nucleotide as indicated; room temperature, 10 min; 5% native PAGE, 45 mM Tris-borate; details: protein: recombinant; tags: N-terminal GST removed by TEV; label: 5' Alexa488; single strand
T5 chain: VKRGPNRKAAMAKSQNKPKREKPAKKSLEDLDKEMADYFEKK

Sub2 = target: T6, Sub2 (UniProt Q07478 1-446); assay: EMSA; 1 mM ATP-gamma-S, 2 mM MgCl2; EMSA: 20 nM RNA, 20 mM HEPES pH 7.0, 100 mM NaCl, 1 mM TCEP, 2 mM MgCl2, 5% glycerol, 0.5 U/ul SUPERase-In, 1 mM nucleotide as indicated; room temperature, 10 min; 5% native PAGE, 45 mM Tris-borate; details: protein: recombinant; tags: N-terminal GST removed by TEV; label: 5' Alexa488; single strand
T6 sequence: T1 sequence (Q07478 1-446)

Sub2;Yra1-C = target: T7, Sub2;Yra1-C (Saccharomyces cerevisiae?;Saccharomyces …, UniProt Q07478;Q12159 1-446;185-226, |); assay: EMSA; 1 mM ATP-gamma-S, 2 mM MgCl2; Yra1-C promotes Sub2-RNA binding, trimeric complex; EMSA: 20 nM RNA, 20 mM HEPES pH 7.0, 100 mM NaCl, 1 mM TCEP, 2 mM MgCl2, 5% glycerol, 0.5 U/ul SUPERase-In, 1 mM nucleotide as indicated; room temperature, 10 min; 5% native PAGE, 45 mM Tris-borate; details: protein: recombinant;recombinant; tags: N-terminal GST removed by TEV;N-terminal GST removed by TEV; copies: 1;1; label: 5' Alexa488; single strand
T7 sequence 1: T1 sequence (Q07478 1-446)
T7 sequence 2: T5 chain

Sub2 (62-446);Yra1-C* = target: T8, Sub2 (62-446);Yra1-C* (Saccharomyces cerevisiae?;Saccharomyces …, UniProt Q07478;Q12159 62-446;200-226, |); assay: X-ray crystallography 2.6 A; ADP-BeF3; EMSA: 20 nM RNA, 20 mM HEPES pH 7.0, 100 mM NaCl, 1 mM TCEP, 2 mM MgCl2, 5% glycerol, 0.5 U/ul SUPERase-In, 1 mM nucleotide as indicated; room temperature, 10 min; 5% native PAGE, 45 mM Tris-borate; details: protein: recombinant;recombinant; tags: N-terminal GST removed by TEV;N-terminal GST removed by TEV; copies: 1;1; single strand
T8 sequence 1: T2 sequence (looked up)
T8 sequence 2: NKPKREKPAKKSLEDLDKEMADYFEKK

THO core complex (THO*) (S. cerevisiae | S. bayanus), sequence (P53552 whole entry, looked up, one chain of several): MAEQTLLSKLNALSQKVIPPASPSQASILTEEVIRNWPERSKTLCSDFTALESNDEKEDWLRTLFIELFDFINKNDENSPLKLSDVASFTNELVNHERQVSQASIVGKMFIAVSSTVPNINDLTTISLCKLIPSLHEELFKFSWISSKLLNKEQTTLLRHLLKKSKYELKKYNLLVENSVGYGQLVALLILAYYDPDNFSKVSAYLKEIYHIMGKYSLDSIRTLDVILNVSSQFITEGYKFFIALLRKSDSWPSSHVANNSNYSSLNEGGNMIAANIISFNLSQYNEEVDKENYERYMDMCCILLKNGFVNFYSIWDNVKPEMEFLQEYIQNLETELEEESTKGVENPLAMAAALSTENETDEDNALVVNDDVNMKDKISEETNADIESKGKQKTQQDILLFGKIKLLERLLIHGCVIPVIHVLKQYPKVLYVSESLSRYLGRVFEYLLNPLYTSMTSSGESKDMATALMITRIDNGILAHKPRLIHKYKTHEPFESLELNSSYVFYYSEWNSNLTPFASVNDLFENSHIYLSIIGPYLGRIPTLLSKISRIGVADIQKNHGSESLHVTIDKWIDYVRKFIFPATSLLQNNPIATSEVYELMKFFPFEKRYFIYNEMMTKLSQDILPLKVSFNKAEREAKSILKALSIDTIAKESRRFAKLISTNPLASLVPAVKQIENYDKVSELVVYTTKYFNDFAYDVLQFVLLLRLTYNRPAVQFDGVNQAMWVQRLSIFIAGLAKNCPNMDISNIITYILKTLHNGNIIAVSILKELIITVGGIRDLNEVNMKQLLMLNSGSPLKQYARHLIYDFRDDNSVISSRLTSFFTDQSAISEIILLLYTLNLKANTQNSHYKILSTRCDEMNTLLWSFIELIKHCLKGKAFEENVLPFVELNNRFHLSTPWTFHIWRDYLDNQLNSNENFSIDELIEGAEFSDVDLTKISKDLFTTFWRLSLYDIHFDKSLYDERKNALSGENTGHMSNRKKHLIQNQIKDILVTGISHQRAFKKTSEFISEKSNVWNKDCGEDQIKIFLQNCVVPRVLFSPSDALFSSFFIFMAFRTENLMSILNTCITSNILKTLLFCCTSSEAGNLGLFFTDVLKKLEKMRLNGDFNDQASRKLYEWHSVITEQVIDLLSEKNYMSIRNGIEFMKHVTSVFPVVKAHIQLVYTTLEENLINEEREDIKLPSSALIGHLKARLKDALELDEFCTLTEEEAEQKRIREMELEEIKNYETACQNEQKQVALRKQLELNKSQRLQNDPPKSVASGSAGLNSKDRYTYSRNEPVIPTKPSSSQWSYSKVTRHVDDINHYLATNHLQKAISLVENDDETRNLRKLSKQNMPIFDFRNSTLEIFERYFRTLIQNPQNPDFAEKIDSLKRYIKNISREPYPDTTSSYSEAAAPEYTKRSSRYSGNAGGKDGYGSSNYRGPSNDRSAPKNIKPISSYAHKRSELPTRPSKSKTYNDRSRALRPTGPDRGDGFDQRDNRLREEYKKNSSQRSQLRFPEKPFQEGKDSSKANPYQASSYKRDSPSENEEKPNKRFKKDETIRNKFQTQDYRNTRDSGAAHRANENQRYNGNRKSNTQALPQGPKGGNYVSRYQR

In the case of Nc1ncnc2c1ncn2[C@@H]1O[C@H](COP(=O)(O)OP(=O)(O)OP(=O)(O)O)[C@@H](O)[C@H]1O [ATP], the “NADH enzyme-coupled ATPase assay” value (Sub2 (full-length)) is reported as “Sub2 ATPase activity (mole of ADP produced per second per mole of Sub2)”.

B1: truncated Yra1-C (Yra1-C*, a.a. 200-226) (domain or fragment, S. cerevisiae, UniProt Q12159 200-226, looked up)
chain: NKPKREKPAKKSLEDLDKEMADYFEKK
notes: source: E. coli BL21-CodonPlus(DE3)-RIL, purified (glutathione sepharose, TEV, mono S, Superdex 200); not shown: GST, N-terminal, cleaved
B1: binds (Sub2 (a.a. 62-446)).

B2: DEAD-box ATPase Sub2, full length (enzyme)
chain: T1 sequence (Q07478 1-446)
Work on B2 yielded a stimulation of the Sub2 ATPase activity by THO* (NADH-coupled ATPase assay, 2 μM Sub2, 2 μM THO, 10 μM poly(U) RNA, 37 °C) [1] of 3.5 fold.

For VKRGPNRKAAMAKSQNKPKREKPAKKSLEDLDKEMADYFEKK (domain or fragment, S. cerevisiae, UniProt Q12159 185-226, looked up) [C-terminal fragment of Yra1, Yra1-C (a.a. 185-226)], the “stimulation of the Sub2 ATPase activity by Yra1-C (NADH-coupled ATPase assay, 2 μM Sub2, 10 μM Yra1, 10 μM poly(U) RNA, 37 °C)” value [2] was ~2 fold.

UUUUUUUUUUUUUUUUUUUU (ssRNA) [poly(U) 20-mer RNA]: no binding (Yra1 C-box); binds (Yra1-C); binds (Sub2). UUUUUUUUUUUUUUUUUUUU (ssRNA) [poly(U) 20-mer RNA]: binds (Sub2;Yra1-C).

UUUUUUUUUUUUUUU (ssRNA) [poly(U) 15-mer RNA]: binds (Sub2 (62-446);Yra1-C*).
